From article PMC8458385, “Molecular basis for PICS-mediated piRNA biogenesis and cell division” (Nature Communications, 2021)
Numbering of substitutions follows the chain as printed. Names may count otherwise.

T1: TOFU-6^RRM (residues 2-92) (C. elegans, UniProt Q09293 2-92)
T1 construct: TOFU-6, C. elegans, RRM domain, residues 2-92; Gene codon-optimised and synthesised; for the crystal co-expressed with PICS-1^RRM from a modified pETDuet-1; also called TOFU-6 RRM domain; TOFU-6^C; source: E. coli BL21(DE3), purified (Ni-NTA, TEV, second Ni-NTA; complex with PICS-1^RRM also Superdex 75); not shown: His tag (from the Ni-NTA purification), N-terminal, cleaved
T1 sequence (looked up): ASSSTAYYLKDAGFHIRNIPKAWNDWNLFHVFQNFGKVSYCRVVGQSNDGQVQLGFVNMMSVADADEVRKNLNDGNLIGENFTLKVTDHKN

T2: TOFU-6^RRM (L73M) (SeMet) (C. elegans, UniProt Q09293 2-92, L73M, seleno-methionine (SeMet) labeled)
T2 construct: TOFU-6, C. elegans, RRM domain, residues 2-92; also called SeMet TOFU-6^RRM(L73M); source: E. coli BL21(DE3) in M9 medium with SeMet, purified with PICS-1^RRM (I233M) (Ni-NTA, TEV, Superdex 75); not shown: His tag (from the Ni-NTA purification), N-terminal, cleaved
T2 sequence (looked up): T1 sequence (looked up) with L72M

T3: ERH-2^1-103-(Gly-Ser-Ser)7-PICS-1^180-200 (C. elegans, UniProt Q20057 1-103; O76616 180-200)
T3 construct: ERH-2, C. elegans, residues 1-103; 21-aa linker (Gly-Ser-Ser)7; PICS-1 (PID-3), C. elegans, EBM, residues 180-200; Cloned into pET28-MHL; The results on ITC say only 'ERH-2' for the fused part; the methods describe only the 1-103 fusion; also called ERH-2-(GSS)7-PICS-1; ERH-2^1-103-(GSS)7-PICS-1^180-200; source: E. coli BL21(DE3), purified (Ni-NTA, TEV, second Ni-NTA, Superdex 75); not shown: His …
T3 chain: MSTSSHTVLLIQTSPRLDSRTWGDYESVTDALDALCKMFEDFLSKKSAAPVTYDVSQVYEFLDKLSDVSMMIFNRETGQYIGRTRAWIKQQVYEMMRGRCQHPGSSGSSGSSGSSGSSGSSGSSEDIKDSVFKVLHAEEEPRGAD

T4: PICS-1^5-282 (C. elegans, UniProt O76616 5-282)
T4 construct: Cloned into pET28-MHL; also called almost full-length PICS-1; source: E. coli BL21(DE3), purified (Ni-NTA, TEV, second Ni-NTA); not shown: His tag (from the Ni-NTA purification), N-terminal, cleaved
T4 sequence (looked up): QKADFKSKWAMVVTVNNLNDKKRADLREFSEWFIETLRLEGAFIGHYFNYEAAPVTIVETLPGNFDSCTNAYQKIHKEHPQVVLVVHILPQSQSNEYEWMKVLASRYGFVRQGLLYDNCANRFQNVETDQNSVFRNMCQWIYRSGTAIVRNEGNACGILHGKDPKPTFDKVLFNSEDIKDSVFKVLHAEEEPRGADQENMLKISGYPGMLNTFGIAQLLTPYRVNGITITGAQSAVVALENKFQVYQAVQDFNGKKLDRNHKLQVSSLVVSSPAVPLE

T5: PICS-1^5-200 (C. elegans, UniProt O76616 5-200)
T5 construct: PICS-1 (PID-3), C. elegans, residues 5-200; Cloned into pET28-MHL; also called PICS-1^ΔRRM; PICS1^ΔRRM; source: E. coli BL21(DE3), purified (Ni-NTA, TEV, second Ni-NTA); not shown: His tag (from the Ni-NTA purification), N-terminal, cleaved
T5 sequence (looked up): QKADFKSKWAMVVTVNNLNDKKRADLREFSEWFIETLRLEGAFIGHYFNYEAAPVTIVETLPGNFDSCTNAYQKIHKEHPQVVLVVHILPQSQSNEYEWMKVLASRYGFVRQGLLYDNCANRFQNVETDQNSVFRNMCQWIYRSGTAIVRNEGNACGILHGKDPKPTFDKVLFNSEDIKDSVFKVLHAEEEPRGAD

T6: ERH-2 D67A (C. elegans, UniProt Q20057 1-113, D67A)
T6 construct: ERH-2, C. elegans; Cloned into pET28-MHL; also called D67A of ERH-2; source: E. coli BL21(DE3), purified as the wild type; not shown: His tag (from the Ni-NTA purification), N-terminal, cleaved
T6 sequence (looked up): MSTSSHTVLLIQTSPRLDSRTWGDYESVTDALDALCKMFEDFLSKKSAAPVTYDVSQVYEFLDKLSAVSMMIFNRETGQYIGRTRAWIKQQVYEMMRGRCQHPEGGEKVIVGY

B1: PICS-1^RRM (residues 201-282) (domain or fragment, C. elegans, UniProt O76616 201-282, looked up)
chain: QENMLKISGYPGMLNTFGIAQLLTPYRVNGITITGAQSAVVALENKFQVYQAVQDFNGKKLDRNHKLQVSSLVVSSPAVPLE
notes: Homodimer in the crystal and by gel filtration; also called PICS-1(PID-3) RRM domain; PID-3; source: E. coli BL21(DE3), purified (Ni-NTA, TEV, second Ni-NTA, Superdex 75); not shown: His tag (from the Ni-NTA purification), N-terminal, cleaved
B2: PICS-1^RRM (I233M) (SeMet) (domain or fragment, C. elegans, UniProt O76616 201-282, looked up)
chain: B1 chain with I33M
modifications: seleno-methionine (SeMet) labeled
notes: also called SeMet PICS-1^RRM(I233M); source: E. coli BL21(DE3) in M9 medium with SeMet, purified with TOFU-6^RRM (L73M) (Ni-NTA, TEV, Superdex 75); not shown: His tag (from the Ni-NTA purification), N-terminal, cleaved
B3: SUMO-fused PID-1^50-70 (domain or fragment, C. elegans, UniProt Q19541 50-70, looked up)
chain: TNLHRKVTLSDRFELAALGYE
notes: PID-1, C. elegans, residues 50-70; the results say it was fused to the C-terminus of SUMO; also called PID-1 fragment; source: E. coli BL21(DE3), purified (Ni-NTA); not shown: SUMO, N-terminal, kept
B4: ERH-2 (natural protein, C. elegans, UniProt Q20057 1-113, looked up)
chain: T6 sequence (looked up) with A67D
notes: ERH-2, C. elegans, amplified from a cDNA library; also called wild type ERH-2; source: E. coli BL21(DE3), purified (Ni-NTA, TEV, second Ni-NTA); not shown: His tag (from the Ni-NTA purification), N-terminal, cleaved
B5: ERH-2 (1-103), the ERH-2 part of the crystallised fusion proteins (domain or fragment, C. elegans, UniProt Q20057 1-103, looked up)
chain: MSTSSHTVLLIQTSPRLDSRTWGDYESVTDALDALCKMFEDFLSKKSAAPVTYDVSQVYEFLDKLSDVSMMIFNRETGQYIGRTRAWIKQQVYEMMRGRCQHP
notes: ERH-2, C. elegans, residues 1-103; In the crystals it stood joined on one chain with PICS-1^180-200 (via (GSS)7) or TOST-1^34-54 (via (GSS)6); written apart for the rows of the two partners; also called ERH-2^A; ERH-2^B; source: E. coli BL21(DE3), purified as part of the fusion proteins m8 and m9
B6: SUMO-fused PICS-1 ERH-2 binding motif (EBM, residues 180-200) (domain or fragment, C. elegans, UniProt O76616 180-200, looked up)
chain: EDIKDSVFKVLHAEEEPRGAD
notes: Cloned into pET28-SUMO; the Kds are for the SUMO fusion protein; also called PICS-1^EBM; PICS-1^180-200; source: E. coli BL21(DE3), purified (Ni-NTA); not shown: SUMO, N-terminal, kept

Columns and labels:
[1] = biological target: the molecule itself; assay: SEC; wild type and F217E of PICS-1^RRM on HiLoad 16/600 Superdex 75, 20 mM Tris hydrochloride pH 8.5, 200 mM NaCl
[2] = biological target: T1, TOFU-6^RRM (residues 2-92); assay: ITC; MicroCal ITC200, 25 °C, 20 mM Tris pH 8.5, 200 mM NaCl or 20 mM MES pH 6.5, 200 mM NaCl; 1–2 mM in the syringe into 30–50 μM in the cell; one-site binding model; conditions: both partners purified
[3] = biological target: the molecule itself; assay: crystal structure; SeMet TOFU-6^RRM (L73M)/PICS-1^RRM (I233M) complex, 1.95 Å; 2% 1,4-dioxane, 0.1 M Tris hydrochloride pH 8.0, 15% PEG 3350, 0.01 M nickel chloride, 18 °C
[4] = biological target: T2, TOFU-6^RRM (L73M) (SeMet); assay: as above; conditions: both partners purified
ERH-2 = biological target: B4; assay: ITC; MicroCal ITC200, 25 °C, 20 mM Tris pH 8.5, 200 mM NaCl or 20 mM MES pH 6.5, 200 mM NaCl; 1–2 mM in the syringe into 30–50 μM in the cell; one-site binding model; conditions: both partners purified
[5] = biological target: T3, ERH-2^1-103-(Gly-Ser-Ser)7-PICS-1^180-20 …; assay: as above; conditions: both partners purified
PICS-1^5-282 = biological target: T4, PICS-1^5-282; assay: SEC; ERH-2 and TOFU-6^RRM mixed with PICS-1 constructs, Superose 6 Increase 10/300 GL, 20 mM Tris hydrochloride pH 8.5, 200 mM NaCl; fractions on SDS-PAGE; conditions: both partners purified
PICS-1^5-200 = biological target: T5, PICS-1^5-200; assay: as above; conditions: both partners purified
[6] = biological target: the molecule itself; assay: crystal structure; fusion protein ERH-2^1-103-(GSS)7-PICS-1^180-200, 2.40 Å; 15% 2-propanol, 0.1 M sodium citrate pH 5.0, 10% PEG 10000, 18 °C
ERH-2 D67A = biological target: T6, ERH-2 D67A; assay: ITC; MicroCal ITC200, 25 °C, 20 mM Tris pH 8.5, 200 mM NaCl or 20 mM MES pH 6.5, 200 mM NaCl; 1–2 mM in the syringe into 30–50 μM in the cell; one-site binding model; conditions: both partners purified

Binder: B1
binding result [1]: binds
Kd [2]: 0.0062 µM

Binder: B2
binding result [3]: binds
binding result [4]: binds

Binder: B3
Kd (ERH-2): 18 µM
Kd [5]: 12 µM

Binder: B4
binding result (PICS-1^5-282): binds
binding result (PICS-1^5-200): binds

Binder: B5
binding result [6]: binds

Binder: B6
Kd (ERH-2 D67A): 4.3 µM
Kd (ERH-2): 8.5 µM
